Article PMC5819950, “3.3-Å resolution cryo-EM structure of human ribonucleotide reductase with substrate and allosteric regulators bound” (eLife, 2018)

B1: human ribonucleotide reductase large subunit (alpha) (enzyme, UniProt P23921 1-792, looked up)
chain: MHVIKRDGRQERVMFDKITSRIQKLCYGLNMDFVDPAQITMKVIQGLYSGVTTVELDTLAAETAATLTTKHPDYAILAARIAVSNLHKETKKVFSDVMEDLYNYINPHNGKHSPMVAKSTLDIVLANKDRLNSAIIYDRDFSYNYFGFKTLERSYLLKINGKVAERPQHMLMRVSVGIHKEDIDAAIETYNLLSERWFTHASPTLFNAGTNRPQLSSCFLLSMKDDSIEGIYDTLKQCALISKSAGGIGVAVSCIRATGSYIAGTNGNSNGLVPMLRVYNNTARYVDQGGNKRPGAFAIYLEPWHLDIFEFLDLKKNTGKEEQRARDLFFALWIPDLFMKRVETNQDWSLMCPNECPGLDEVWGEEFEKLYASYEKQGRVRKVVKAQQLWYAIIESQTETGTPYMLYKDSCNRKSNQQNLGTIKCSNLCTEIVEYTSKDEVAVCNLASLALNMYVTSEHTYDFKKLAEVTKVVVRNLNKIIDINYYPVPEACLSNKRHRPIGIGVQGLADAFILMRYPFESAEAQLLNKQIFETIYYGALEASCDLAKEQGPYETYEGSPVSKGILQYDMWNVTPTDLWDWKVLKEKIAKYGIRNSLLIAPMPTASTAQILGNNESIEPYTSNIYTRRVLSGEFQIVNPHLLKDLTERGLWHEEMKNQIIACNGSIQSIPEIPDDLKQLYKTVWEISQKTVLKMAAERGAFIDQSQSLNIHIAEPNYGKLTSMHFYGWKQGLKTGMYYLRTRPAANPIQFTLNKEKLKDKEKVSKEEEEKERNTAAMVCSLENRDECLMCGS
notes: human ribonucleotide reductase α (large) subunit, 792 residues; the final cryo-EM model holds two residues of tag and residues 1-743, and the 49-residue C-terminal tail is disordered; The number of copies depends on the nucleotides: α2 with TTP, α6 ring (three α2) with dATP, ATP, dATP + ATP, ClFDP or ClFTP; also called human α

Columns and labels:
[1] = target: the molecule itself; assay: cryo-EM structure; 14 μM α with 0.05 mM dATP, 3 mM ATP, 1 mM CDP in 50 mM HEPES pH 7.6, 15 mM MgCl2, 1 mM EDTA, 5 mM DTT, 50 mM KCl, incubated at 37°C; single-particle map at 3.3 Å
[2] = target: the molecule itself; assay: negative stain EM; α with 0.1 mM TTP, same buffer; 2D class averages
[3] = target: B1; assay: negative stain EM; 3 μM α and 3 μM β with 3 mM ATP, 0.05 mM dATP, 1 mM CDP in 50 mM HEPES pH 7.6, 15 mM MgCl2, 50 mM KCl, 5 mM DTT, 37°C for 2 min, diluted ~20 fold; ISAC averages; settings: both partners purified

B1
stoichiometry N [1]: 6 | stoichiometry N [2]: 2

B2: human ribonucleotide reductase β subunit (enzyme)
chain: TKAAAPGVEDEPLLRENPRRFVIFPIEYHDIWQMYKKAEASFWTAEEVDLSKDIQHWESLKPEERYFISHVLAFFAASDGIVNENLVERFSQEVQITEARCFYGFQIAMENIHSEMYSLLIDTYIKDPKEREFLFNAIETMPCVKKKADWALRWIGDKEATYGERVVAFAAVEGIFFSGSFASIFWLKKRGLMPGLTFSNELISRDEGLHCDFACLMFKHLVHKPSEERVREIIINAVRIEQEFLTEALPVKLIGMNCTLMKQYIEFVADRLMLELGFSKVFRVENPFDFMENISLEGKTNFFEKRVGEYQRMGVMSSPTENSFTLDADF
notes: human ribonucleotide reductase β (small) subunit, homodimer β2 with the diferric-tyrosyl radical cofactor; also called β2; human β
stoichiometry N [3]: 1 β2 per α6 ring
